Test results taken from PMC11586414.

Target: AMPylated HEPN^Lpg (Legionella pneumophila Philadelphia 1) (UniProt Q5ZRG2)
Assay: crystal structure

AMPylated HEPN^Lpg (from UniProt Q5ZRG2 1-139) (natural protein)
stoichiometry N: 4
